The target of assay [1] is T1, human HHLA2 expressed on transfected cells (300.19 mouse pre-B cells; CHO cells) (human, UniProt Q9UM44 23-414).
T1 construct: also called B7-H7; B7H7
T1 sequence: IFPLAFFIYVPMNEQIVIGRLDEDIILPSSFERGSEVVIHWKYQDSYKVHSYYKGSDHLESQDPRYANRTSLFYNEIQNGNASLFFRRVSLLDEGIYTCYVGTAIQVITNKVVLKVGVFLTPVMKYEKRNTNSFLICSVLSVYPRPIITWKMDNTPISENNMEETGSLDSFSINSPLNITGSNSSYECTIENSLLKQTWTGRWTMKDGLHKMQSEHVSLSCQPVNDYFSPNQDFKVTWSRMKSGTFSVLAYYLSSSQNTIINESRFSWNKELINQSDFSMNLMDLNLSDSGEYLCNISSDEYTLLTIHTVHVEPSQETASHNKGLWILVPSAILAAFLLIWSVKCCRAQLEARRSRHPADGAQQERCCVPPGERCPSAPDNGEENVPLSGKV
The experiment in a line: flow cytometry, mAb titrated on HHLA2-transfected 300.19 pre-B cells, PE goat anti-mouse IgG. The protocol: (§1) HHLA2 mAb cell binding and receptor blockade experiments were then performed. […] HHLA2 mAb binding to transfected 300.19 cells was detected with PE-labeled goat anti-mouse IgG (H+L). For HHLA2 mAb blocking experiments different concentration of HHLA2 mAbs were pre-incubated with 4 ug/ml of HHLA2-mIgG2a at a 1:1 ratio for 30 minutes and added to either TMIGD2 or KIR3DL3 transfected 293T cells and incubated for 30 minutes at 4° C. HHLA2-mIgG2a binding to TMIGD2 or KIR3DL3 transfected 293T cells was detected with a PE labeled Fab2 goat anti-mIgG2a antibody. EC50 and IC50 analyses were conducted using Graph Pad Prism. It was shown that HHLA2 mAb clone 2C4 has desired properties of complete KIR3DL3 blockade and partial TMIGD2 blockade (Table 6).
(In flow cytometry, cells or beads pass a laser one at a time.)

For assay [2], the target named is T2, human HHLA2-mIgG2a fusion protein (human; mouse, UniProt Q9UM44 23-344, limits assumed).
T2 construct: also called hHHLA2-mIgG2a; HHLA2-Fc
T2 sequence: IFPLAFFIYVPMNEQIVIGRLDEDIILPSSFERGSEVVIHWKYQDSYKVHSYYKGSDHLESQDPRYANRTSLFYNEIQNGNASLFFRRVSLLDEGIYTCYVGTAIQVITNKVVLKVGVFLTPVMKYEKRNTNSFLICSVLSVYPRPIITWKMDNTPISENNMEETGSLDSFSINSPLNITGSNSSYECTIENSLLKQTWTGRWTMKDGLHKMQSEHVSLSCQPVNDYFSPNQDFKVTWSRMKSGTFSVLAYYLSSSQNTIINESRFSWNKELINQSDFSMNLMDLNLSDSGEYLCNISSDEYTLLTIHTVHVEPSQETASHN
Nature of the assay: flow cytometry, mAb pre-incubated with 4 ug/ml HHLA2-mIgG2a; blockade of its binding to KIR3DL3-transfected 293T cells. The protocol: as §1

For assay [3], the target named is T1, human HHLA2 expressed on transfected …. Nature of the assay: flow cytometry, mAb on HHLA2-transfected 300.19 mouse pre-B cells.
Assay [4] concerns the target T2, human HHLA2-mIgG2a fusion protein. The experiment in a line: flow cytometry, mAb pre-incubated with 4 ug/ml HHLA2-mIgG2a; blockade of its binding to TMIGD2-transfected 293T cells. On the procedure:
as §1

The target is the same in assay [5]. Nature of the assay: cell microarray, HHLA2-mIgG2a on fixed transfected HEK293 cells, AF647 anti-mouse IgG detection. The protocol:
Human HHLA2-mIgG2a fusion protein was added to slides of fixed, transfected HEK293 cell slides at a 20 ug/ml concentration, and the protein was detected with an AF647 labeled anti-mouse IgG detection antibody. Two replicate slides were screened for each of the 13 slide sets. Fluorescent images were analyzed and quantitated (for transfection efficiency) using ImageQuant software (GE). A protein ‘hit’ was defined as duplicate spots showing a raised signal compared to background levels. This was achieved by visual inspection using the images gridded on the ImageQuant software.
Addition of the AF647 labeled anti-mouse IgG detection antibody alone in the absence of HHLA2-mIgG2a produced no signal. The selectivity of HHLA2 binding to KIR3DL3 was evaluated using a panel of 14 KIR receptors arrayed on slides.

B1: anti-HHLA2 monoclonal antibody 1C8 (antibody, IgG2a, V domains shown)
VH: EVQLQQSGAELVQPGASVKLSCTASGFNIKDTYMHWVKQRPEQGLEWIGRIDPANGKTIFDPKFQVKATITADTSSNTVYLHLSSLTSEDTAIYYCAWLLPYYFDYWGQGTTLTVSS
VL: EIVLTQSPAVMAASPGEKVTITCSVSSSISSSNLHWYQQKSGTSPKLWIYGTSNLASGVPVRFSGSGSGTSYSLTISSMEAEDAATYYCQKWSHYPLTFGAGTKLELK
notes: also called 499.5.1C8.9.12.2; MHC2564
Broadly, the EC50 is the concentration at which the effect is half-maximal. Read a low EC50 as an effect from little substance. As usually defined, the IC50 is the concentration that inhibits the measured activity by half. For B1, the EC50 in assay [1] and in assay [3] was 0.63 µg/mL throughout. The results for the IC50 in assay [2] and in assay [4] were 1.15 µg/mL and 1.65 µg/mL, respectively.

B2: KIR2DS5 (receptor, human, UniProt Q14953 22-304, looked up)
chain: HEGFRRKPSLLAHPGPLVKSEETVILQCWSDVMFEHFLLHREGTFNHTLRLIGEHIDGVSKGNFSIGRMTQDLAGTYRCYGSVTHSPYQLSAPSDPLDIVITGLYEKPSLSAQPGPTVLAGESVTLSCSSRSSYDMYHLSREGEAHERRLPAGPKVNRTFQADFPLDPATHGGTYRCFGSFRDSPYEWSKSSDPLLVSVTGNSSNSWPSPTEPSSETGNPRHLHVLIGTSVVKLPFTILLFFLLHRWCSNKKNASVMDQGPAGNRTVNREDSDEQDHQEVSYA
notes: whole, on cells
For B2, the binding result in assay [5] is given as “no binding (tested: 20 ug/ml)”.

B3: anti-HHLA2 monoclonal antibody 6D10 (antibody, IgG1, V domains shown)
VH: EVQLVETGGGLVQPKGSLKLSCAASGFTFNTNVMNWVRQAPGKGLEWVARIRTKTNNYATYYADSVKDRFTIFRDDSQSILYLQMNNLKTEDTAMYYCVGAMDYWGQGTSVTVSS
VL: DIVLTQSPASLAVSLGQRATISCRASESVDNYGISFMHWYQQKPGQPPKLLIYRASNLKSGIPARFSGSGSRTDFTLTINPVETGDVATYYCQQSSKDPPTFGTGTKLELK
notes: also called 6DI0; 499.5.6D10.11.11.7
In the case of B3, the EC50 in assay [1] and in assay [3] was 22.5 µg/mL throughout. The results for the concentration for half-maximal inhibition (IC50) in assay [2] and in assay [4] were 7 µg/mL and 11.7 µg/mL, respectively.

B4: anti-HHLA2 monoclonal antibody 4D1 (antibody, IgG1, V domains shown)
VH: QVQLQQSGAELVRPGVSVKISCKGSGYTFTDYAMHWVKQSHAKSLEWIGSISTYYGDTNYNQKFKGKATMTVDKSSSTAYMELARLTSEDSAIYYCARGNYDDWYFNVWGAGTTVTVSS
VL: DIQMTQSPSSLSASLGERVSLTCRASQDISGYLSWLQQKPDGTIKRLIYSTSTLDSGVPKRFSGSRSGSDYSLTISSLESEDFADYYCLQYASSPYTFGGGAKLEIK
notes: also called 499.5.4D1.5.16; MHC2563
Consider B4, for which the EC50 in assay [1] and in assay [3] was 0.44 µg/mL in each case. The IC50 was found to be 0.68 µg/mL in assay [2] and 0.56 µg/mL in assay [4].

B5: anti-HHLA2 monoclonal antibody 2G2 (antibody, IgG1, V domains shown)
VH: EVMLVESGGGLVKPGGSLKLSCAVSGLTFSSYAMSWVRQTPEKRLEWVATISSGGSHTYYPDSVKGRFIISRDNAKNTLYLQMNSLRSEDTAMYYCTRLGRAFDYWGQGTTLTVSS
VL: DIVMTQSHKFMSTSVGDRVSITCKASQDVSTAVAWYQQKPGQSPKVLIYWASTRHTGVPDRFTGSGSGTDFTLTISSVQAEDLALYYCQQDYSTPWTFGGGTKLEIK
notes: also called 499.5.2G2.13.3.10; MHC2561
B5: the EC50 in assay [1] and in assay [3] was 0.21 µg/mL throughout. Also, the values for the IC50 in assay [2] and in assay [4] were 0.53 µg/mL and 0.85 µg/mL, respectively.

B6: KIR2DS1 (receptor, human, UniProt Q14954 22-304, looked up)
chain: HEGVHRKPSLLAHPGRLVKSEETVILQCWSDVMFEHFLLHREGMFNDTLRLIGEHHDGVSKANFSISRMKQDLAGTYRCYGSVTHSPYQLSAPSDPLDIVIIGLYEKPSLSAQPGPTVLAGENVTLSCSSRSSYDMYHLSREGEAHERRLPAGTKVNGTFQANFPLGPATHGGTYRCFGSFRDSPYEWSKSSDPLLVSVTGNPSNSWPSPTEPSSETGNPRHLHVLIGTSVVKIPFTILLFFLLHRWCSDKKNAAVMDQEPAGNRTVNSEDSDEQDHQEVSYA
notes: whole, on cells
For B6, the binding result in assay [5] is “no binding (tested: 20 ug/ml)”.

B7: KIR2DL3 (receptor, human, UniProt P43628 22-341, looked up)
chain: HEGVHRKPSLLAHPGPLVKSEETVILQCWSDVRFQHFLLHREGKFKDTLHLIGEHHDGVSKANFSIGPMMQDLAGTYRCYGSVTHSPYQLSAPSDPLDIVITGLYEKPSLSAQPGPTVLAGESVTLSCSSRSSYDMYHLSREGEAHERRFSAGPKVNGTFQADFPLGPATHGGTYRCFGSFRDSPYEWSNSSDPLLVSVTGNPSNSWPSPTEPSSETGNPRHLHVLIGTSVVIILFILLLFFLLHRWCCNKKNAVVMDQEPAGNRTVNREDSDEQDPQEVTYAQLNHCVFTQRKITRPSQRPKTPPTDIIVYTELPNAEP
notes: whole, on cells
As for B7, the binding result in assay [5] is listed as “no binding (tested: 20 ug/ml)”.

The record behind these values is patent US20210115144A1 (Dana-Farber, published 2021).
